# Patent US20050148763A1, “Peg-binding pth or peg-binding pth derivative” (Chugai Seiyaku Kabushiki Kaisha, priority 2002, published 2005)
# Assays:
# Assay type in all cases: in vivo
# [1] = Pharmacokinetics in rats by intravenous route; conditions: 80 μg/mL at 1 mL/kg
# Protocol: (§1) Each sample was adjusted to 80 μg/mL by dilution with 25 mmol/L citrate-phosphate buffer (pH 5.0) containing 100 mmol/L NaCl and 0.05 vol % Tween 20 to give a solution for administration. Male SD rats at 6 weeks of age (CLEA Japan, Inc.) were provided for this experiment. Intravenous injection was performed on rats having polyethylene tubes (SP-31, Natsume Seisakusho Co., Ltd.) inserted into the femoral artery and vein. The solutions thus prepared were each administered at a dose of 1 mL/kg through a polyethylene tube inserted into the femoral vein, and blood was collected through a polyethylene tube inserted into the femoral artery before administration and at 5, 15, 30 and 45 minutes as well as 1, 2, 4, 6, 8 and 24 hours after administration. Subcutaneous administration was performed on rats having polyethylene tubes inserted into the femoral artery. The solutions prepared above were each subcutaneously administered at a dose of 1 mL/kg to the dorsal neck region of the rats, and blood was collected in the same manner as used for intravenous injection. These blood samples were centrifuged to collect plasma and stored at −40° C. until assayed for PTH(1-34) or PEG-PTH(1-34) levels.
# (§2) The level of PTH(1-34) or PEG-PTH(1-34) was determined by RIA analysis using a Rat PTH IRMA Kit (Immutopics). A Cobra Quantum Model 5005 gamma counter (Packard) was used to measure radioactivity for each sample. The plasma level of PTH(1-34) or PEG-PTH(1-34) was calculated from a calibration curve prepared using PTH(1-34) or PEG-PTH(1-34). The Winnonlin program Ver. 2.1 (Scientific Consulting Inc.) was used to analyze the time course of changes in the calculated plasma PTH(1-34) or PEG-PTH(1-34) levels (FIG. 3: by intravenous route; FIG. 4: by subcutaneous route) to calculate the following as pharmacokinetic parameters: time required to reach the maximum plasma level (Tmax); maximum plasma level (Cmax); area under the curve of plasma levels (AUC); plasma half-life (t1/2); total body clearance (Cltotal); mean residence time in the body (MRT); and bioavailability (BA). […]
# [2] = Pharmacokinetics and bioavailability in rats by subcutaneous route; conditions: for BA: subcutaneous route; for AUC / MRT / Tmax / t ½: subcutaneous, 80 μg/mL at 1 mL/kg
# Protocol: as §1, §2
# [3] = Hypercalcemic effect of PEG-PTH(1-34) in normal male BDF1 mice; conditions: for time of maximum increase in blood ionized calcium levels after administration: sc, hPTH(1-34) 50-500 nmol/kg, PEG-PTHs 150 nmol/kg
# Protocol: (§3) 2 k and 5 k PEG-PTH(1-34) were also adjusted similarly to 30 nmol/mL (calculated as PTH) and allowed to stand on ice immediately before administration.
# (§4) Male BDF1 mice at 5 weeks of age (Charles River Japan, Inc.) were measured for their body weight. Immediately before drug administration, blood was collected by orbital puncture into heparinized capillary tubes and measured for baseline levels of blood ionized calcium and pH using a Ca^2+/pH analyzer (Model 348/Bayer Medical Ltd.) to give the corrected level of ionized calcium at pH 7.4 for each sample. The mice received subcutaneous administration of each drug at a dose of 5 mL/kg. […] At 1, 3 and 6 hours after administration, blood was collected by orbital puncture to monitor the time course of corrected blood ionized calcium levels.
# [4] = Hypercalcemic effect of PEG-PTH(1-34) in normal female DDY mice
# Protocol: as §3, §4
# The same experiment was repeated on female DDY mice at 5 weeks of age (Charles River Japan, Inc.). The mice received subcutaneous administration of each drug at a dose of 5 mL/kg. […] At 1, 3 and 6 hours after administration, blood was collected by orbital puncture to monitor the time course of corrected blood ionized calcium levels.
# [5] = Hypotensive effect in anesthetized rats; conditions: sc
# Protocol: The mono-methoxy 5 k PEG-PTH(1-34) prepared in Example 1(2) was also adjusted similarly to 36.5, 18.3 and 9.1 μg/mL (calculated as PTH(1-34)). The samples thus prepared were then stored on ice and restored to room temperature about 30 minutes before administration.
# Female SD rats at 10 weeks of age (Charles River Japan, Inc.) were anesthetized by intraperitoneal administration of 50 mg/kg pentobarbital sodium (Abbott Laboratories). A catheter for blood pressure measurement and a catheter for anesthesia maintenance were inserted into the femoral artery and vein, respectively, of each rat. Anesthesia was maintained using a syringe pump (Terumo Corporation) to ensure continuous injection (at 22.5 mg/kg/hour) of pentobarbital sodium (powder form, Tokyo Kasei Kogyo Co., Ltd.) dissolved in physiological saline (Otsuka Pharmaceutical Co., Ltd.). On the other hand, each catheter for blood pressure measurement was filled with 100 U/mL heparin sodium (Novo Nordisk A/S) in physiological saline. To measure systemic blood pressure, a pressure transducer (Nihon Kohden Corporation) was connected to the catheter for blood pressure measurement and signals from the transducer were input to a blood pressure amplifier (Nihon Kohden Corporation). The resulting data were averaged for use as an indicator of systemic blood pressure. The output of systemic blood pressure was, in turn, input to a measuring unit for instantaneous heart rate (Nihon Kohden Corporation) to determine heart rate. These parameters were continuously recorded on a thermal pen recorder (Graphtec Corporation) at a speed of 5 mm/min. After surgery, an injection needle for administration of a test substance was inserted into the dorsal subcutaneous region of each rat. After each parameter had stabilized, test drugs were administered. […] This figure illustrates changes in blood pressure induced by administration of a negative control (buffer), 50 μg/kg hPTH (1-34) and 36.5 μg/kg 5 k PEG-PTH(1-34) in this order from the upper panel. In addition, the average value of blood pressure before PTH administration and the value at the maximum blood pressure drop after administration were measured for each case to determine the difference between these two values. […] The vertical axis represents the maximum blood pressure drop (mmHg) and the horizontal axis represents the amount of PTH administered.
substance,measurement,setting,value
"2k PEG-hPTH(1-34): hPTH(1-34) reacted with mPEG 2 k-SPA, fraction having one 2 kDa PEG molecule per PTH molecule",AUC,[1],95.781 ng·h/mL
same,Cltotal,[1],14.03 mL/min/kg
same,MRT,[1],0.465 h
same,t ½,[1],1.128 h
same,BA,[2]; listed as 2 k PEG-PTH (1-34),56.1%
same,BA,[2]; listed as 2 k PEG-PTH(1-34),about 56.1%
same,AUC,[2],53.78 ng·h/mL
same,MRT,[2],1.684 h
same,Tmax,[2],0.300 h
same,t ½,[2],1.231 h
same,increase in blood ionized calcium levels (in words),[3]; 150 nmol/kg sc,almost the same increase in ionized calcium levels as observed with 500 nmol/kg hPTH(1-34)
same,increased blood ionized calcium level maintained until,[3]; 150 nmol/kg sc,3 h
same,time of maximum increase in blood ionized calcium levels after administration,[3],one
"5k PEG-hPTH(1-34): hPTH(1-34) reacted with mPEG 5 k-SPA, fraction having one 5 kDa PEG molecule per PTH molecule",AUC,[1],178.547 ng·h/mL
same,Cltotal,[1],7.49 mL/min/kg
same,MRT,[1],2.578 h
same,t ½,[1],5.706 h
same,BA,[2],~71.0%
same,AUC,[2],126.793 ng·h/mL
same,MRT,[2],5.706 h
same,Tmax,[2],0.813 h
same,t ½,[2],6.758 h
same,increase in blood ionized calcium levels (in words),[3]; 150 nmol/kg sc,gradual increase in blood ionized calcium levels to reach the same maximum value as observed with hPTH(1-34)
same,time of maximum increase in blood ionized calcium levels after administration,[3],3 h
same,increase in blood ionized calcium levels (in words),[4]; 150 nmol/kg sc,gradual increase in blood ionized calcium levels to reach the same maximum value as observed with 500 nmol/kg hPTH(1-34)
same,time of maximum increase in blood ionized calcium levels after administration,"[4]; sc, hPTH(1-34) 50-500 nmol/kg, 5 k PEG-PTH(1-34) 150 nmol/kg",3 h
same,hypotensive effect after administration (in words),[5]; anesthetized female SD rats,mild hypotensive effect after administration
same,"hypotensive effect over doses, maximum blood pressure drop (in words)","[5]; anesthetized rats, hPTH(1-34) 12.5-50 μg/kg, 5 k PEG-PTH(1-34) 9.1-36.5 μg/kg",much weaker effect than hPTH(1-34) when administered at a higher dose
